# Measurements as given in patent publication US20240287172A1 (SCIRHOM, published 2024).
# B1: antibody 48 (antibody, V domains shown)
# VH: QVQLQQSGTELVRPGTSVKVSCKASGYAFTNYLIEWVKQRPGQGLEWIGVINPGSGFTKYNEKFKGKATLTADKSSSTVYMHLSSLTSEDSAVYFCARGLYRAMDYWGQGTSVTVSS
# VL: DIQMTQSPASQSASLGESVTITCLASQTIATWLAWYQQKPGKSPQLLIYGATTLADGVPSRFSGGGSGTKFSFKISSLQAEDFVSYYCQQLYSTPYTFGGGTKLEIK
# notes: mouse IgG, kappa light chain; also called clone #48; purified antibody 48
# Biological target: T1, miR2-FL-WT-T7 (mouse, UniProt Q80WQ6 1-827)
# T1 construct: on MEF-DKO cells
# T1 sequence: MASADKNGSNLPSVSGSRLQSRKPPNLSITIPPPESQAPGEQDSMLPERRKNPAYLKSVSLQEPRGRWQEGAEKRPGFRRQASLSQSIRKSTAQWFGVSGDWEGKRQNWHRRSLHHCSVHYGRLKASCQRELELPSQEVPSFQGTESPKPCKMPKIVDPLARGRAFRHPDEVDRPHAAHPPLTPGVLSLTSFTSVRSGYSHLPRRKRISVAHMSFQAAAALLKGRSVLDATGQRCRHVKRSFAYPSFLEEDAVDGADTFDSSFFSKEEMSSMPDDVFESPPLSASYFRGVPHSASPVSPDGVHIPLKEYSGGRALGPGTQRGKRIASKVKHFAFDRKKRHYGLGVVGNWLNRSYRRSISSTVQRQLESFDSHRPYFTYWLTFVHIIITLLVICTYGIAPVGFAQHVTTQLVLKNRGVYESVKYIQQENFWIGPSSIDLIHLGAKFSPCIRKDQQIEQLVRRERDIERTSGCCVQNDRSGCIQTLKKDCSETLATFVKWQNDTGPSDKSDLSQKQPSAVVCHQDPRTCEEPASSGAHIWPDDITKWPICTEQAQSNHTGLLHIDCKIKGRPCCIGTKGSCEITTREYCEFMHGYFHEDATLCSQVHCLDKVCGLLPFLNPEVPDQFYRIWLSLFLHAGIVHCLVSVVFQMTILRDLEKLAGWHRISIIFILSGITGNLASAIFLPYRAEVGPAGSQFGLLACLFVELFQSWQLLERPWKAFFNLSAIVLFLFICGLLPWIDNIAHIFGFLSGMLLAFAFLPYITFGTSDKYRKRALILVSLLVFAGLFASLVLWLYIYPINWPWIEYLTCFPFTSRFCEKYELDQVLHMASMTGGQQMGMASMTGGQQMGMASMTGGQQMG
# Assay: FACS, MEF-DKO-miR2-FL-WT-T7 cells
# Protocol: In brief, immortalized MEF-DKO-EV control cells, MEF-DKO-hiR2-FL-WT-T7 cells and MEF-DKO-miR2-FL-WT-T7 cells were harvested with 10 mM EDTA in PBS, washed and resuspended in FACS buffer (PBS, 3% FBS, 0.05% sodium azide), and seeded in Nunc U-bottom 96-well plates (Thermo Fisher Scientific, USA) at approximately 3×10⁵ cells per well. To pellet cells and remove supernatants, the plates were centrifuged at 1,500 rpm and 4° C. for 3 minutes. For primary staining, cells were resuspended in 100 μl per well of either FACS buffer alone (controls), mouse monoclonal anti-T7 IgG (Merck Millipore, USA) at 3 μg/ml FACS buffer or the purified antibodies 3, 5, 16, 22, 34, 42, 43, 44, 48, and 50 of the invention also at 3 μg/ml FACS buffer and incubated on ice for 1 hour. Afterwards, plates were centrifuged at 1,500 rpm and 4° C. for 3 minutes and washed twice with 200 μl per well of FACS buffer. For secondary staining, cells were spun down and resuspended in 100 μl per well of PE-conjugated goat anti-mouse IgG F(ab′)2 detection fragment (Dianova, Germany) diluted 1:100 in FACS buffer. Protected from light, the cell suspensions were incubated on ice for 1 hour. […] Finally, cells were resuspended in 150 μl per well of FACS buffer and analyzed using a BD Accuri™ C6 Plus flow cytometer (Becton Dickinson, Germany).
binder,measurement,value
B1,binding result,no binding (tested: 3 µg/ml)
